Experimental data: paper PMC7263589, “Integration of phage and yeast display platforms: A reliable and cost effective approach for binning of peptides as displayed on-phage” (PLoS ONE, 2020)
Ends that are not written are not given here.

Experiments:
IL-23-AVI [1] = target: T1, IL-23-AVI (human, UniProt Q9NPF7 20-189; P29460 23-328); test: SPR; Biacore T200, 25°C; 200–1000 RU of IL-23-AVI captured to streptavidin chip, IL-23R-FLAG-HIS as analyte, single cycle kinetics; 1:1 model; settings: both partners purified
T1 construct: IL-23 p19 subunit, human; IL-12/IL-23 p40 subunit, human; Captured on streptavidin chips and beads, so biotinylation of the Avi tag is implied; also called Avi-tagged IL-23; recombinant IL-23
T1 sequence (looked up) 1: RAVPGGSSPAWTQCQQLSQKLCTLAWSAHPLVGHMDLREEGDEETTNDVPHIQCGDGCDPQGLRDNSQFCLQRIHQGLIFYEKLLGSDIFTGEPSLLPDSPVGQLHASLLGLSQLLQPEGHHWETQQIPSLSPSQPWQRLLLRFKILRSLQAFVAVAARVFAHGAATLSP
T1 sequence (looked up) 2: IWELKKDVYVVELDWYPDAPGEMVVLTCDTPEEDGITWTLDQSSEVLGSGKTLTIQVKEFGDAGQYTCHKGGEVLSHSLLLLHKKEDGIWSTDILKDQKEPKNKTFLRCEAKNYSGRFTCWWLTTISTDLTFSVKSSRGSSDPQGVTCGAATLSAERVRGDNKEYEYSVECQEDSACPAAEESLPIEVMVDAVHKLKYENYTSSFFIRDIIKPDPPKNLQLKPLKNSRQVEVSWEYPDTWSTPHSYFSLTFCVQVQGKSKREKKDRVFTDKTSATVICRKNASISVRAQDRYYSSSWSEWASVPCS

IL-23-AVI [2] = target: T1, IL-23-AVI; test: AlphaScreen or HTRF; AlphaLISA; IL-23-AVI (1.5 nM) pre-incubated with peptide 30 min, then FLAG-tagged IL-23R (3 nM); streptavidin donor and anti-FLAG acceptor beads; 25 mM HEPES pH 7.4, 150 mM NaCl, 0.02% Tween 20, 0.1% BSA; room temperature; n = 1; settings: both partners purified
IL-23-HIS = target: T2, IL-23-HIS (human, UniProt Q9NPF7 20-189; P29460 23-328); test: SPR; competition SPR, 25°C; IL-23R-Fc-AVI (<1000 RU) captured on Protein-A; 20 nM IL-23 mixed with one concentration of peptide or cold IL-23R injected 30 s; 10 mM HEPES pH 7.5, 150 mM NaCl, 0.005% P20, 1% BSA; n = 1; settings: both partners purified
T2 construct: IL-23 p19 subunit, human; IL-12/IL-23 p40 subunit, human; also called IL-23 only; IL-23 protein
T2 sequence (looked up) 1: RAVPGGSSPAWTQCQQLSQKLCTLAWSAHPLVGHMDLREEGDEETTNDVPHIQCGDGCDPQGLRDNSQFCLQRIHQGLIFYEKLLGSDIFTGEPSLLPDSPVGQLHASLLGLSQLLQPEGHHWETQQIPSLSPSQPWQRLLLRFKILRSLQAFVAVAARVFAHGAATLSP
T2 sequence (looked up) 2: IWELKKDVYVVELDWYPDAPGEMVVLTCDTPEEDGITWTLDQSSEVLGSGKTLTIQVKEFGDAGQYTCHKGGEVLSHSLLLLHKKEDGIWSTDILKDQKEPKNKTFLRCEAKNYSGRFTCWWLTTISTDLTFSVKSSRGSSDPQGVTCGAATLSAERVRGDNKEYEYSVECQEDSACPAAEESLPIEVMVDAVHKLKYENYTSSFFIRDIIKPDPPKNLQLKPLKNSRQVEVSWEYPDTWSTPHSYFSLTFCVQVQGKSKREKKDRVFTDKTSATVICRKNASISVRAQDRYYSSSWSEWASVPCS

IL-23-AVI [3] = target: T1, IL-23-AVI; test: SPR; Biacore T200, 25°C, 50 μl/min; 2000–9000 RU of IL-23-AVI captured to streptavidin chip, peptides as analyte (3-fold series, up to 30 μM); 10 mM HEPES pH 7.5, 150 mM NaCl, 0.005% P20, 3% DMSO; multi-cycle, single cycle kinetics for 23–652; 1:1 model; n = 1; settings: both partners purified
IL-23-AVI [4] = target: T1, IL-23-AVI; test: AlphaScreen or HTRF; TR-FRET; compounds pre-incubated with IL-23R-FLAG 1 h, then IL-23-AVI; Europium-streptavidin and anti-FLAG-allophycocyanin; 25 mM HEPES, 150 mM NaCl, 0.02% Tween 20, 0.1% BSA, pH 7.4, 1% DMSO; n = 1; settings: both partners purified
[5] = target: T3, Fluorescently labeled IL-23R, Q5VWK5; test: flow cytometry on yeast-displayed IL-23; settings: chain shown with the change; n = 1; parent: est. 1.05; read off a plot
T3 chain: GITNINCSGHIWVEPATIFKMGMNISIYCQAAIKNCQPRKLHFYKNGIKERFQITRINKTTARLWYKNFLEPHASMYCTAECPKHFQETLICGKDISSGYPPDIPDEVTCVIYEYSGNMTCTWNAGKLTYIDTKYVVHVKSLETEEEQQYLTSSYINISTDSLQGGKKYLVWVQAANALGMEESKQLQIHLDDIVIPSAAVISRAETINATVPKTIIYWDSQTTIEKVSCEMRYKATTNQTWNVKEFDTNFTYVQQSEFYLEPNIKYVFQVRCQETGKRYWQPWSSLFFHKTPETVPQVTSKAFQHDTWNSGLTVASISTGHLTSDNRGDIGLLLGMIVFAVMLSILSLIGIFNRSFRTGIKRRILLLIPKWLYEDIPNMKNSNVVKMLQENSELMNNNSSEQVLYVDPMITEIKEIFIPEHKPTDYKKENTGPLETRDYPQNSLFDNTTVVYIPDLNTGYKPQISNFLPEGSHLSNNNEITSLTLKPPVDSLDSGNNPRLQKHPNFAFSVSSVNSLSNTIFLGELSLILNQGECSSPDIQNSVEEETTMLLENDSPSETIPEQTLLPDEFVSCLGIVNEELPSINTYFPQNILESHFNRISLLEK

Row | Binder | Kd (IL-23-AVI [1]) [µM] | koff (IL-23-AVI [1]) [s⁻¹] | kon (IL-23-AVI [1]) [M⁻¹ s⁻¹] | IC50 (IL-23-AVI [2]) [µM] | % inhibition of IL-23 binding to immobilised IL-23R (peptide at 30 μM) (IL-23-HIS) [%] | Kd (IL-23-AVI [3]) [µM] | koff (IL-23-AVI [3]) [s⁻¹] | kon (IL-23-AVI [3]) [M⁻¹ s⁻¹] | IC50 (IL-23-AVI [4]) [µM] | ratio to parent [5]
1 | IL-23R-FLAG-HIS (receptor, Soluble monomeric ectodomain, FLAG and His tags left out. Limits are not printed in the main text (constructs are in S1 Table of the supplement), so the mature extracellular domain from UniProt …) GITNINCSGHIWVEPATIFKMGMNISIYCQAAIKNCQPRKLHFYKNGIKERFQITRINKTTARLWYKNFLEPHASMYCTAECPKHFQETLICGKDISSGYPPDIPDEVTCVIYEYSGNMTCTWNAGKLTYIDTKYVVHVKSLETEEEQQYLTSSYINISTDSLQGGKKYLVWVQAANALGMEESKQLQIHLDDIVIPSAAVISRAETINATVPKTIIYWDSQTTIEKVSCEMRYKATTNQTWNVKEFDTNFTYVQQSEFYLEPNIKYVFQVRCQETGKRYWQPWSSLFFHKTPETVPQVTSKAFQHDTWNSGLTVASISTGHLTSDNRGDIG | 0.00892 | 0.00151 | 170000 |  |  |  |  |  |  | 
2 | FTKEIDSWWLSLMSS (selected from a peptide phage library against IL-23; No cysteines, 15 residues; source: synthetic peptide (CPC Scientific)) [peptide 23–437 (free, chemically synthesized)] |  |  |  | 1.4 | 57.6 | 10.5 | 1.86 | 178000 | 7 | 
3 | LECLYYLRWKVCDN (not fully specified (bridges); cysteine pairing not given here, selected from a peptide phage library against IL-23; Two cysteines; source: synthetic peptide (CPC Scientific)) [peptide 23–447 (free, chemically synthesized)] |  |  |  | 6.7 | 78.7 | ~27.5 | ~1.33 | ~48300 | 24 | 
4 | QKITQCVYIIWTYPCLLNDV (selected from a peptide phage library against IL-23; Two cysteines; source: synthetic peptide (CPC Scientific)) [peptide 23–441 (free, chemically synthesized)] |  |  |  | 2.5 | 100 | 0.911 | 0.174 | 190000 | 5.7 | 
5 | wild-type IL-23 displayed on yeast, Q9NPF7;P29460 W137A (protein) chain 1: RAVPGGSSPAWTQCQQLSQKLCTLAWSAHPLVGHMDLREEGDEETTNDVPHIQCGDGCDPQGLRDNSQFCLQRIHQGLIFYEKLLGSDIFTGEPSLLPDSPVGQLHASLLGLSQLLQPEGHHWETQQIPSLSPSQPAQRLLLRFKILRSLQAFVAVAARVFAHGAATLSP chain 2: IWELKKDVYVVELDWYPDAPGEMVVLTCDTPEEDGITWTLDQSSEVLGSGKTLTIQVKEFGDAGQYTCHKGGEVLSHSLLLLHKKEDGIWSTDILKDQKEPKNKTFLRCEAKNYSGRFTCWWLTTISTDLTFSVKSSRGSSDPQGVTCGAATLSAERVRGDNKEYEYSVECQEDSACPAAEESLPIEVMVDAVHKLKYENYTSSFFIRDIIKPDPPKNLQLKPLKNSRQVEVSWEYPDTWSTPHSYFSLTFCVQVQGKSKREKKDRVFTDKTSATVICRKNASISVRAQDRYYSSSWSEWASVPCS |  |  |  |  |  |  |  |  |  | 0.1
6 | wild-type IL-23 displayed on yeast, Q9NPF7;P29460 L141A (protein) chain 1: RAVPGGSSPAWTQCQQLSQKLCTLAWSAHPLVGHMDLREEGDEETTNDVPHIQCGDGCDPQGLRDNSQFCLQRIHQGLIFYEKLLGSDIFTGEPSLLPDSPVGQLHASLLGLSQLLQPEGHHWETQQIPSLSPSQPWQRLALRFKILRSLQAFVAVAARVFAHGAATLSP chain 2: IWELKKDVYVVELDWYPDAPGEMVVLTCDTPEEDGITWTLDQSSEVLGSGKTLTIQVKEFGDAGQYTCHKGGEVLSHSLLLLHKKEDGIWSTDILKDQKEPKNKTFLRCEAKNYSGRFTCWWLTTISTDLTFSVKSSRGSSDPQGVTCGAATLSAERVRGDNKEYEYSVECQEDSACPAAEESLPIEVMVDAVHKLKYENYTSSFFIRDIIKPDPPKNLQLKPLKNSRQVEVSWEYPDTWSTPHSYFSLTFCVQVQGKSKREKKDRVFTDKTSATVICRKNASISVRAQDRYYSSSWSEWASVPCS |  |  |  |  |  |  |  |  |  | 0.1
